# Assay results: patent publication US20200002421A1 (AbbVie / Abbott, published 2020)
# T1: Human full length B7-H3 (human, UniProt Q5ZPR3 29-534)
# T1 sequence: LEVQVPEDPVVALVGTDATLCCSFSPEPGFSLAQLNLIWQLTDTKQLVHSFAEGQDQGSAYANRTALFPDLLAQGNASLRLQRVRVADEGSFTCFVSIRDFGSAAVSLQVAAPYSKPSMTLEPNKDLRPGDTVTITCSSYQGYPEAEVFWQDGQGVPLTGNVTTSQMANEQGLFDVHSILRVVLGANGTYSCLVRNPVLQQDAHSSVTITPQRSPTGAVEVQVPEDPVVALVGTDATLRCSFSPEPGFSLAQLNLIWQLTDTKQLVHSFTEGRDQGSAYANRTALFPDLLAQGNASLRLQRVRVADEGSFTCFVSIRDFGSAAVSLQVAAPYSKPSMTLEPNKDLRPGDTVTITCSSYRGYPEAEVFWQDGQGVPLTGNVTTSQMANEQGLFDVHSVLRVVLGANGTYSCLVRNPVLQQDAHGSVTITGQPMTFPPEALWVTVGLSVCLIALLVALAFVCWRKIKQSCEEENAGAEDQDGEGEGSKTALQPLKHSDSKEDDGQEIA
# T2: hB7-H3 (ELISA antigen of Tables 17 and 20) (human, UniProt Q5ZPR3 29-466, limits assumed)
# T2 sequence: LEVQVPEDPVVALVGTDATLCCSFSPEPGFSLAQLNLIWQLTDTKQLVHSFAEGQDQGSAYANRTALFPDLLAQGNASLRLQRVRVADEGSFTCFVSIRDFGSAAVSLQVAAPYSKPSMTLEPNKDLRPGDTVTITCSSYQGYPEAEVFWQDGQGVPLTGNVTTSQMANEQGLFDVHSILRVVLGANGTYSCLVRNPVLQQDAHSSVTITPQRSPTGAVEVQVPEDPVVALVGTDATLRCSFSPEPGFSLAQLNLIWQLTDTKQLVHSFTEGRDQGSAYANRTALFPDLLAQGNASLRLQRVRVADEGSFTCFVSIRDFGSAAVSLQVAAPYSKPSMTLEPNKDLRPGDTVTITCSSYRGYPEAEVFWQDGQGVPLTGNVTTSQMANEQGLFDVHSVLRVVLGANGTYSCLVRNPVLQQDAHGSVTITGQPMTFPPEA
# What was measured:
# Human full length B7-H3 [1] = target: T1, Human full length B7-H3; assay: cell-based or functional assay
# [2] = target: T2, hB7-H3 (ELISA antigen of Tables 17 and …); assay: ELISA
# [3] = target: T3, Cynomolgous B7-H3 on cells (cynomolgus); assay: FACS, 3T12 transfectants
# T3 construct: whole, on cells; also called cyno B7-H3; cyB7-H3
# Human full length B7-H3 [4] = target: T1, Human full length B7-H3; assay: FACS, 3T12 transfectants
EC50 [2] [nM],EC50 [3] [nM],EC50 (Human full length B7-H3 [4]) [nM],Binder,EC50 nM H1650 (in vitro tumor cell cytotoxicity) (Human full length B7-H3 [1]) [nM]
,,,"huAb3v2.6-XW (antibody, human IgG1, kappa, L234A L235A, V domains shown, synthon XW on interchain Cys) VH: EVQLVQSGAEVKKPGSSVKVSCKASGYTFSSYWMHWVRQAPGQGLEWIGLIHPESGSTNYNEMFKNRATLTVDRSTSTAYMELSSLRSEDTAVYYCAGGGRLYFDYWGQGTTVTVSS VL: DIVMTQSPLSLPVTPGEPASISCRSSQSLVHSNQDTYLRWYLQKPGQSPQLLIYKVSNRFSGVPDRFSGSGSGTDFTLKISRVEAEDVGVYYCSQSTHVPYTFGGGTKVEIKR",2.4
0.1,3.68,5.29,"huAb3v2.2 (antibody, V domains shown) VH: EVQLVQSGAEVKKPGSSVKVSCKASGYTFSSYWMHWVRQAPGQGLEWIGLIHPWSGSTNYNEMFKNRATLTVDRSTSTAYMELSSLRSEDTAVYYCAGGGRLYFDYWGQGTTVTVSS VL: DIVMTQSPLSLPVTPGEPASISCRSSQSLVHSNRDTYLRWYLQKPGQSPQLLIYKVSNRFSGVPDRFSGSGSGTDFTLKISRVEAEDVGVYYCSQSTHVPYTFGGGTKVEIK",
,,,"huAb3v2.6-YG (antibody, human IgG1, kappa, L234A L235A, V domains shown, synthon YG on interchain Cys) VH: EVQLVQSGAEVKKPGSSVKVSCKASGYTFSSYWMHWVRQAPGQGLEWIGLIHPESGSTNYNEMFKNRATLTVDRSTSTAYMELSSLRSEDTAVYYCAGGGRLYFDYWGQGTTVTVSS VL: DIVMTQSPLSLPVTPGEPASISCRSSQSLVHSNQDTYLRWYLQKPGQSPQLLIYKVSNRFSGVPDRFSGSGSGTDFTLKISRVEAEDVGVYYCSQSTHVPYTFGGGTKVEIKR",0.68
,,,"huAb3v2.6-KZ (antibody, human IgG1, kappa, L234A L235A, V domains shown, synthon KZ on interchain Cys) VH: EVQLVQSGAEVKKPGSSVKVSCKASGYTFSSYWMHWVRQAPGQGLEWIGLIHPESGSTNYNEMFKNRATLTVDRSTSTAYMELSSLRSEDTAVYYCAGGGRLYFDYWGQGTTVTVSS VL: DIVMTQSPLSLPVTPGEPASISCRSSQSLVHSNQDTYLRWYLQKPGQSPQLLIYKVSNRFSGVPDRFSGSGSGTDFTLKISRVEAEDVGVYYCSQSTHVPYTFGGGTKVEIKR",5.52
0.13,4.86,,"huAb3v2.5 (antibody, human IgG1, kappa, L234A L235A, V domains shown, Ig gamma-1 mutant / kappa) VH: EVQLVQSGAEVKKPGSSVKVSCKASGYTFSSYWMHWVRQAPGQGLEWIGLIHPESGSTNYNEMFKNRATLTVDRSTSTAYMELSSLRSEDTAVYYCAGGGRLYFDYWGQGTTVTVSS VL: DIVMTQSPLSLPVTPGEPASISCRSSQSLVHSNRDTYLRWYLQKPGQSPQLLIYKVSNRFSGVPDRFSGSGSGTDFTLKISRVEAEDVGVYYCSQSTHVPYTFGGGTKVEIKR",
,,,"huAb3v2.6-SE (antibody, human IgG1, kappa, L234A L235A, V domains shown, synthon SE on interchain Cys) VH: EVQLVQSGAEVKKPGSSVKVSCKASGYTFSSYWMHWVRQAPGQGLEWIGLIHPESGSTNYNEMFKNRATLTVDRSTSTAYMELSSLRSEDTAVYYCAGGGRLYFDYWGQGTTVTVSS VL: DIVMTQSPLSLPVTPGEPASISCRSSQSLVHSNQDTYLRWYLQKPGQSPQLLIYKVSNRFSGVPDRFSGSGSGTDFTLKISRVEAEDVGVYYCSQSTHVPYTFGGGTKVEIKR",1.01
,,,"huAb3v2.6-SR (antibody, human IgG1, kappa, L234A L235A, V domains shown, synthon SR on interchain Cys) VH: EVQLVQSGAEVKKPGSSVKVSCKASGYTFSSYWMHWVRQAPGQGLEWIGLIHPESGSTNYNEMFKNRATLTVDRSTSTAYMELSSLRSEDTAVYYCAGGGRLYFDYWGQGTTVTVSS VL: DIVMTQSPLSLPVTPGEPASISCRSSQSLVHSNQDTYLRWYLQKPGQSPQLLIYKVSNRFSGVPDRFSGSGSGTDFTLKISRVEAEDVGVYYCSQSTHVPYTFGGGTKVEIKR",0.71
0.16,4.64,6.16,"huAb3v2.9 (antibody, V domains shown) VH: EVQLVQSGAEVKKPGSSVKVSCKASGYTFSSYWMHWVRQAPGQGLEWIGLIHPISGSTNYNEMFKNRATLTVDRSTSTAYMELSSLRSEDTAVYYCAGGGRLYFDYWGQGTTVTVSS VL: DIVMTQSPLSLPVTPGEPASISCRSSQSLVHSNQDTYLRWYLQKPGQSPQLLIYKVSNRFSGVPDRFSGSGSGTDFTLKISRVEAEDVGVYYCSQSTHVPYTFGGGTKVEIK",
0.11,4.03,6.5,"huAb3v2.3 (antibody, V domains shown) VH: EVQLVQSGAEVKKPGSSVKVSCKASGYTFSSYWMHWVRQAPGQGLEWIGLIHPWSGSTNYNEMFKNRATLTVDRSTSTAYMELSSLRSEDTAVYYCAGGGRLYFDYWGQGTTVTVSS VL: DIVMTQSPLSLPVTPGEPASISCRSSQSLVHSNQDTYLRWYLQKPGQSPQLLIYKVSNRFSGVPDRFSGSGSGTDFTLKISRVEAEDVGVYYCSQSTHVPYTFGGGTKVEIK",
0.44,2.87,5.11,"huAb3v2 (antibody, V domains shown) VH: EVQLVQSGAEVKKPGSSVKVSCKASGYTFSSYWMHWVRQAPGQGLEWIGLIHPDSGSTNYNEMFKNRATLTVDRSTSTAYMELSSLRSEDTAVYYCAGGGRLYFDYWGQGTTVTVSS VL: DIVMTQSPLSLPVTPGEPASISCRSSQSLVHSNGDTYLRWYLQKPGQSPQLLIYKVSNRFSGVPDRFSGSGSGTDFTLKISRVEAEDVGVYYCSQSTHVPYTFGGGTKVEIK",
,,,"huAb13v1-AAD (antibody, human IgG1, kappa, L234A L235A, V domains shown, synthon AAD on interchain Cys) VH: EVQLQESGPGLVKPSETLSLTCAVTGYSITSGYSWHWIRQFPGNGLEWMGYIHSSGSTNYNPSLKSRISISRDTSKNQFFLKLSSVTAADTAVYYCAGYDDYFEYWGQGTTVTVSS VL: DIQMTQSPSSLSASVGDRVTITCKASQNVGFNVAWYQQKPGKSPKALIYSASYRYSGVPSRFSGSGSGTDFTLTISSLQPEDFAEYFCQQYNWYPFTFGQGTKLEIKR",0.21
,,,"huAb13v1-WD (antibody, human IgG1, kappa, L234A L235A, V domains shown, synthon WD on interchain Cys) VH: EVQLQESGPGLVKPSETLSLTCAVTGYSITSGYSWHWIRQFPGNGLEWMGYIHSSGSTNYNPSLKSRISISRDTSKNQFFLKLSSVTAADTAVYYCAGYDDYFEYWGQGTTVTVSS VL: DIQMTQSPSSLSASVGDRVTITCKASQNVGFNVAWYQQKPGKSPKALIYSASYRYSGVPSRFSGSGSGTDFTLTISSLQPEDFAEYFCQQYNWYPFTFGQGTKLEIKR",0.45
,,,"huAb13v1-ZZ (antibody, human IgG1, kappa, L234A L235A, V domains shown, synthon ZZ on interchain Cys) VH: EVQLQESGPGLVKPSETLSLTCAVTGYSITSGYSWHWIRQFPGNGLEWMGYIHSSGSTNYNPSLKSRISISRDTSKNQFFLKLSSVTAADTAVYYCAGYDDYFEYWGQGTTVTVSS VL: DIQMTQSPSSLSASVGDRVTITCKASQNVGFNVAWYQQKPGKSPKALIYSASYRYSGVPSRFSGSGSGTDFTLTISSLQPEDFAEYFCQQYNWYPFTFGQGTKLEIKR",0.42
,,,"huAb13v1-ZT (antibody, human IgG1, kappa, L234A L235A, V domains shown, synthon ZT on interchain Cys) VH: EVQLQESGPGLVKPSETLSLTCAVTGYSITSGYSWHWIRQFPGNGLEWMGYIHSSGSTNYNPSLKSRISISRDTSKNQFFLKLSSVTAADTAVYYCAGYDDYFEYWGQGTTVTVSS VL: DIQMTQSPSSLSASVGDRVTITCKASQNVGFNVAWYQQKPGKSPKALIYSASYRYSGVPSRFSGSGSGTDFTLTISSLQPEDFAEYFCQQYNWYPFTFGQGTKLEIKR",0.3
,,,"huAb13v1-LB (antibody, human IgG1, kappa, L234A L235A, V domains shown, synthon LB on interchain Cys) VH: EVQLQESGPGLVKPSETLSLTCAVTGYSITSGYSWHWIRQFPGNGLEWMGYIHSSGSTNYNPSLKSRISISRDTSKNQFFLKLSSVTAADTAVYYCAGYDDYFEYWGQGTTVTVSS VL: DIQMTQSPSSLSASVGDRVTITCKASQNVGFNVAWYQQKPGKSPKALIYSASYRYSGVPSRFSGSGSGTDFTLTISSLQPEDFAEYFCQQYNWYPFTFGQGTKLEIKR",> 133
